B1: NF-kappa-B inhibitor alpha (Homo sapiens), P25963 (parent)
chain: MFQAAERPQEWAMEGPRDGLKKERLLDDRHDSGLDSMKDEEYEQMVKELQEIRLEPQEVPRGSEPWKQQLTEDGDSFLHLAIIHEEKALTMEVIRQVKGDLAFLNFQNNLQQTPLHLAVITNQPEIAEALLGAGCDPELRDFRGNTPLHLACEQGCLASVGVLTQSCTTPHLHSILKATNYNGHTCLHLASIHGYLGIVELLVSLGADVNAQEPCNGRTALHLAVDLQNPDLVSLLLKCGADVNRVTYQGYSPYQLTWGRPSTRIQQQLGQLTLENLQMLPESEDEESYDTESEFTEFTEDELPYDDCVFGGQRLTL
partner: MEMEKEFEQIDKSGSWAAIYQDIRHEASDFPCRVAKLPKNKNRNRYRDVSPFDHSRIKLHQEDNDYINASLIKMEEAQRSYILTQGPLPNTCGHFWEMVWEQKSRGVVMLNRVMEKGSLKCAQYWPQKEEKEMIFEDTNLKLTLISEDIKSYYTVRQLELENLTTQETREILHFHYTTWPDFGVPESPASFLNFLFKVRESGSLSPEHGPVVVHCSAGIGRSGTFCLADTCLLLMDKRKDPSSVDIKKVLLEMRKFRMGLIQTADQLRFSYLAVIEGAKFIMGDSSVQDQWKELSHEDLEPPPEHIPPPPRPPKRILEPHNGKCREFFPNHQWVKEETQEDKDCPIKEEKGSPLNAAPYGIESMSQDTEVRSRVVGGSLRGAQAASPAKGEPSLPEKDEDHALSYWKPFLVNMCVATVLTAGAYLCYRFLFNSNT

Variants of: B1
Settings: with ptn1_human PTPN1, P18031

effect of a mutation on the interaction | Variant
disrupting interaction | Y42F
